According to article PMC11983102, “Conjugation to a transferrin receptor 1-binding Bicycle peptide enhances ASO and siRNA potency in skeletal and cardiac muscles” (Nucleic Acids Research, 2025):

Target: human His6-TfR1, P02786
Experiment: SPR
Conditions: chain shown with the change

Sequence of human His6-TfR1, P02786 (P02786 89-760): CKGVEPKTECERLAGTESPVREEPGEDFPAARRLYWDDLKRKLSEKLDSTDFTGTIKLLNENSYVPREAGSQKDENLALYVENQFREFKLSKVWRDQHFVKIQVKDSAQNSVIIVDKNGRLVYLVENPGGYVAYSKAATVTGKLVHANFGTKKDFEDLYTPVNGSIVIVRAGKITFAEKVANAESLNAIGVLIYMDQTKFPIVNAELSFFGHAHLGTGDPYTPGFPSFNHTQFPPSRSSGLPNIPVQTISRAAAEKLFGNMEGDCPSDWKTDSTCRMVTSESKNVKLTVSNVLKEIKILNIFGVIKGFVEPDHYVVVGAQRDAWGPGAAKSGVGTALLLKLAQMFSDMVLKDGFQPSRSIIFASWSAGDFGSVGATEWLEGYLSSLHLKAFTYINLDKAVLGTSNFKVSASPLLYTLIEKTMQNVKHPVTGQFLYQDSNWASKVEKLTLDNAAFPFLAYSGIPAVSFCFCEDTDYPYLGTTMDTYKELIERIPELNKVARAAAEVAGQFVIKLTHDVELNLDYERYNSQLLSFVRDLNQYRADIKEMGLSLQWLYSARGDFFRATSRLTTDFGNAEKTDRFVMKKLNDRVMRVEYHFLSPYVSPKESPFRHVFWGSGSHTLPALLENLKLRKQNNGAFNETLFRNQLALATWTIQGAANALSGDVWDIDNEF

- Kd: 46 nM
Binder: CSPDAHLGCISYC [BCY15468 Ni:A del; Ti:A del; Nii:Ac (N-terminal acetyl cap)]
